Laboratory results taken from the RNAGym collection of RNA variant scans (doi:10.7554/elife.90254).

B1: LINE1-mini (parent)
chain: GGCAGAGCUCAACACAGCGUGGCAAAGUGGCUGUGGCUAGACUGCC

Variants of: B1
Experiment: self-cleavage, relative activity (ratio to wild type); higher = more cleavage; in vitro, sequencing; the parent is a self-cleaving ribozyme

Row | Variant | self-cleavage
1 | C15U C42U | 0.11
2 | C3A A11G | 0.06
3 | U9G G40U | 0.08
4 | C3G G33A | 0.23
5 | C37A A41U | 0.08
6 | C23A G33U | 0.2
7 | G36A U38G | 0.03
8 | C8G C10G | 0.02
9 | U9C C37G | 0.01
10 | U20C G21C | 0.39
11 | A16G C46G | 0.68
12 | G17C G22A | 1.3
13 | G22U A41G | 0.37
14 | C10G A39G | 0.03
15 | C8U G27U | 0.14
16 | C13G C23A | 0.29
17 | C15A A16G | 0.07
18 | G22A G29A | 0.27
19 | C10G G33A | 0.03
20 | C3G C23A | 0.47
21 | A12G A39G | 0.01
22 | C37A G44A | 0.13
23 | U9G G17C | 0.1
24 | A16G C23A | 0.56

Row | Variant | self-cleavage
25 | A4U C13U | 0.14
26 | A39G | 0.1
27 | A26U C31A | 0.14
28 | G1A G44C | 0.47
29 | G1U U38A | 0.13
30 | C15A G29A | 0.16
31 | C8G G33U | 0.03
32 | C10U A14U | 0.14
33 | C15A G27U | 0.09
34 | C31G A41G | 0.03
35 | C18G C23G | 0.66
36 | C23A A24C | 0.85
37 | G36U C46A | 0.1
38 | U28A U38G | 0.01
39 | C8A C13U | 0.9
40 | G2C G35A | 0.06
41 | A24U C37A | 0.05
42 | G2A C37G | 0.13
43 | U34G U38C | 0.16
44 | C23A U43A | 0.1
45 | U9C G40U | 0.03
46 | G7U U9G | 0.09
47 | C8A C10G | 0.02
48 | A24C G33U | 0.04

Row | Variant | self-cleavage
49 | G2U A11G | 0.02
50 | A12U A24C | 0.24
51 | A11C C15A | 0.02
52 | G1U G29U | 0.38
53 | A4C C15G | 0.04
54 | C10U A41U | 0.16
55 | A12C G35U | 0.03
56 | A25U A26G | 0.71
57 | U20A G22U | 0.91
58 | G30C A41G | 0.21
59 | C13U C46U | 0.3
60 | U34A C42A | 0.05
61 | A12G U43A | 0.12
62 | A12G G22A | 0.03
63 | U9C G33C | 0.03
64 | A26U A39U | 2.46
65 | G30U U32A | 0.13
66 | A24C U34A | 0.07
67 | G21U G33U | 0.17
68 | A4U C23A | 0.16
69 | C8A U43G | 0.11
70 | C3G U32A | 0.05
71 | G2C C10G | 0.03
72 | G30A C45U | 1.57

Row | Variant | self-cleavage
73 | C31G G33A | 0.05
74 | C23U G27U | 0.87
75 | G22A G27U | 0.75
76 | C13U A24C | 0.15
77 | G17C G35U | 0.03
78 | A11C A39G | 0.03
79 | A16C U34G | 0.05
80 | G36C G44U | 0.08
81 | G2C C18A | 0.06
82 | G29U G35C | 0.08
83 | G5A A26U | 0.19
84 | G2A C37U | 0.28
85 | A6U C8A | 0.27
86 | A14G G40C | 0.09
87 | C23U A41G | 0.51
88 | A24C C37U | 0.06
89 | C10U C13A | 0.06
90 | A26U | 1.27
91 | G17A C23G | 0.13
92 | G17U G21C | 1.31
93 | C10G A14G | 0.09
94 | A25G G29U | 1.14
95 | G21A G44U | 0.56
96 | C15G G21A | 0.08

Row | Variant | self-cleavage
97 | G35U C46A | 0.11
98 | C18U U28C | 1.2
99 | C37A C42A | 0.05
100 | A4G C23G | 0.41
101 | C23U A39G | 0.1
102 | G33U G35A | 0.08
103 | G2C C45A | 0.25
104 | G22A G40U | 0.12
105 | A41G U43A | 0.05
106 | A4C A16G | 0.09
107 | U9G G33A | 0.06
108 | G22C G36A | 0.05
109 | A25G C37G | 0.03
110 | G7A A12G | 0.05
111 | G22U U43C | 0.18
112 | C23U U38C | 0.93
113 | G27A A41C | 0.04
114 | A6C C31A | 0.11
115 | G17A C31G | 0.08
116 | G33U C46G | 0.07
117 | U32C G35C | 0.08
118 | U34A G40U | 0.06
119 | G21A G40U | 0.19
120 | G2A A6U | 1

Row | Variant | self-cleavage
121 | A6C A14G | 0.16
122 | G22C C37G | 0.05
123 | A12C A16C | 0.03
124 | C15G U34C | 0.03
125 | C3G G22A | 0.36
126 | A12U G27U | 0.23
127 | C18U U38C | 0.27
128 | C23G U28C | 0.66
129 | G7C C45G | 0.11
130 | G22U G33C | 0.07
131 | G29A C31U | 0.95
132 | A25G C45A | 0.86
133 | C10A C42U | 0.03
134 | G7U U9C | 0.04
135 | C8A C46U | 0.43
136 | G5C A41C | 0.04
137 | C8A A16U | 0.23
138 | U28G G29C | 0.53
139 | C23G U38A | 0.32
140 | G5A A12G | 0.08
141 | G1A G19A | 1.77
142 | A4G G30U | 0.45
143 | A12G A14U | 0.03
144 | A11G C45U | 0.03

Row | Variant | self-cleavage
145 | A25G A41C | 0.04
146 | G27U C42U | 0.2
147 | G2U G27A | 0.15
148 | G19C C46U | 1.42
149 | A12G U20A | 0.04
150 | C10G G21A | 0.18
151 | G1C G5C | 0.02
152 | G1U A14C | 0.03
153 | U32G A41C | 0.05
154 | C15A G21A | 0.16
155 | A4C G21A | 0.42
156 | U38G C46A | 0.02
157 | G2U A24C | 0.07
158 | G2U A25C | 0.05
159 | A11G C31G | 0.03
160 | G19U C31G | 0.05
161 | G1C G40A | 0.03
162 | C13G U32A | 0.09
163 | G19U G33C | 0.07
164 | A12U G22C | 0.26
165 | A14C C42A | 0.07
166 | G27U G40C | 0.16
167 | G1U U20C | 0.22
